Measured values reported in patent US8889408B2, “Factor taking part in transcription control” (Sony Corporation, priority 2002, dated 2014).

How the values were obtained:
[1] = system: glucocorticoid receptor (GR); experiment: GR reporter CAT analysis in GR positive Hela cells; type: cell-based; conditions: co-expression of HDART; Hela cells; 10^−8 M dexamethasone
Experimental: Furthermore, the action of HDART on the transcription regulation by glucocorticoid receptor (GR) was analyzed by use of GR reporter plasmid in GR positive Hela cells. The transcription activity of a glucocorticoid response promoter was carried out in the same manner as in the experiment for the retinoic acid receptor except for the use of Hela cells and 10^−8 M of dexamethasone. The results of the measurement are shown in the same manner as shown above.
Next, the influence of the overexpression of N4TPR on the transcription from RAR or a glucocorticoid responsive promoter was checked. It will be noted that this test was made in the same manner as in the reporter analysis set out in Example 4, but using GFP-N4TPR expression vector (0, 0.3 and 0.5 μg).

[2] = target: HDAC3 (Homo sapiens, UniProt O15379); experiment: Immunoprecipitation of GFP-HDART with Flag-HDAC in 293 cells; type: binding; parameters: expressed in transfected cells; host or cells: 293 cells; conditions: co-transfected 293 cells; anti-FLAG immunoprecipitation
Sequence of HDAC3 (O15379 whole entry, species assumed): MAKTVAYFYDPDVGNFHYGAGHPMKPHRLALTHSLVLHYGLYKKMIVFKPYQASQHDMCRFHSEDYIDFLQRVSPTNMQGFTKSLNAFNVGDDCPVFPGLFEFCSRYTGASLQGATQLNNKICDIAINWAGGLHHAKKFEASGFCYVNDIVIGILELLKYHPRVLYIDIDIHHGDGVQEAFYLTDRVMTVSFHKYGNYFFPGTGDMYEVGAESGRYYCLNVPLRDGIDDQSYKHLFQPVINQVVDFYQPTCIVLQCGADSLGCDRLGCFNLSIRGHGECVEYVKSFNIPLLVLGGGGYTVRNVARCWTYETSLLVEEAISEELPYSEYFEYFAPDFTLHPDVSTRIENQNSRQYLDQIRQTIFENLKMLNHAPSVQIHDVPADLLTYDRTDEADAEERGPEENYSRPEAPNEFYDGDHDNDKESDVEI
Experimental: Flag-HDACs expression vectors capable of expressing different types of HDAC (1, 3, 4 or 6) and a GFP-HDART expression vector were, respectively, co-transfected with 293 cells in the same manner as in Example 2, and cell extracts were prepared 24 hours after the transfection. The respective cell extracts were incubated with an anti-Flag antibody, followed by immunoprecipitation. The resulting immunoprecipitate was isolated with SDS-PAGE and an isolated pattern was transferred to a membrane, followed by immunoblotting with use of an anti-Flag antibody or […]. For reference, in order to confirm the expression of GFP-HDART protein in the respective cells, individual samples prior to the immunoprecipitation were similarly developed with SDS-PAGE to conduct immunoblotting with use of an anti-GFP antibody. […] The kinds of HDAC's from the left side of the figure are as follows: lane 1, HDAC1; lane 3, HDAC3; lane 4, HDAC4; and lane 5, HDAC6. It will be noted that lane 2 is for the sample in which GFP-HDART alone was expressed.

[3] = target: T1, Skip (Homo sapiens, UniProt Q13573); experiment: Immunoprecipitation analysis of HDART-Skip interaction in 293 cells; type: binding; parameters: expressed in transfected cells; host or cells: HEK293 cells
T1 sequence (Q13573 1-536): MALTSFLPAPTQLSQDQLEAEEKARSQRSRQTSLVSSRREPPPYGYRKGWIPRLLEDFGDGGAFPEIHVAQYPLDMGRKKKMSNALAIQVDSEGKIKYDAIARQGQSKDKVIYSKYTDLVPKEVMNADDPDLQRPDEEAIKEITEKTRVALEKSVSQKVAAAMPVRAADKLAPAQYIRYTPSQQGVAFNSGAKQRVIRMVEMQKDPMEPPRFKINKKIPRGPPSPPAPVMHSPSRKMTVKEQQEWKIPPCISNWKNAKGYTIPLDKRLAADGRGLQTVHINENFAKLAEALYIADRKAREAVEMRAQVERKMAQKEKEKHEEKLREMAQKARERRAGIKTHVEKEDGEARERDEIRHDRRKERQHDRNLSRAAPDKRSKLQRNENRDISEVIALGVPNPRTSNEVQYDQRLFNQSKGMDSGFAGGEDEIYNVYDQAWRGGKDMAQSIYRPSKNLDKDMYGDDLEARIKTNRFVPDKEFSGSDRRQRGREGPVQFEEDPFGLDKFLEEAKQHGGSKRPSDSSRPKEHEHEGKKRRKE
Experimental: The interaction between HDART and Skip inside the mammalian cells was confirmed according to the immunoprecipitation analysis. For the confirmation, the Flag-Skip expression vector expressing the Flag-Skip fused protein and the GFP-HDART expression protein expressing the GFP-HDART fused protein (FIG. 4A) were transfected into HEK293 cells by use of Effectene kit (QIAGEN™). It will be noted that a control experiment was conducted such that the Flag-Skip expression vector alone and the GFP-HDART expression vector were, respectively, transfected into cells of the same type under the same conditions.
24 hours after the transfection, the cells were lysed on ice for 30 minutes in a Nonidet P-40 buffer solution (50 mM Tris HCl (pH 7.6), 150 mM NaCl, 5 mM EDTA, 0.5% Nonidet P-40 and 1 mM PMSF) containing 100 μl of a protease inhibitory substance cocktail (Sigma #p8340) to prepare a cell extract (1 mg). This extract was incubated for 30 minutes at 4° C. along with 40 μl of protein A/G sepharose beads for preliminary clarification. Next, the thus clarified supernatant extract was further incubated for 1 hour along with an anti-Flag antibody or a negative control mouse IgG antibody (2 μg), followed by precipitation for 30 minutes by use of 40 μl of protein A/G sepharose beads. […]
Further, the interaction of endogenous HDART and externally introduced Skip was analyzed. […]

B1: HDART: HDAC associated repressor TPR protein, 855 amino acids, SEQ ID NO: 2; transcription repressing factor, used as fusions or expressed from vector (protein, listed as Homo sapiens)
chain: MVVMARLSRPERPDLVFEEEDLPYEEEIMRNQFSVKCWLRYIEFKQGAPKPRLNQLYERALKLLPCSYKLWYRYLKARRAQVKHRCVTDPAYEDVNNCHERAFVFMHKMPRLWLDYCQFLMDQGRVTHTRRTFDRALRALPITQHSRIWPLYLRFLRSHPLPETAVRGYRRFLKLSPESAEEYIEYLKSSDRLDEAAQRLATVVNDERFVSKAGKSNYQLWHELCDLISQNPDKVQSLNVDAIIRGGLTRFTDQLGKLWCSLADYYIRSGHFEKARDVYEEAIRTVMTVRDFTQVFDSYAQFEESMIAAKMETASELGREEEDDVDLELRLARFEQLISRRPLLLNSVLLRQNPHHVHEWHKRVALHQGRPREIINTYTEAVQTVDPFKATGKPHTLWVAFAKFYEDNGQLDDARVILEKATKVNFKQVDDLASVWCQCGELELRHENYDEALRLLRKATALPARRAEYFDGSEPVQNRVYKSLKVWSMLADLEESLGTFQSTKAVYDRILDLRIATPQIVINYAMFLEEHKYFEESFKAYERGISLFKWPNVSDIWSTYLTKFIARYGGRKLERARDLFEQALDGCPPKYAKTLYLLYAQLEEEWGLARHAMAVYERATRAVEPAQQYDMFNIYIKRAAEIYGVTHTRGIYQKAIEVLSDEHAREMCLRFADMECKLGEIDRARAIYSFCSQICDPRTTGAFWQTWKDFEVRHGNEDTIKEMLRIRRSVQATYNTQVNFMASQMLKVSGSATGTVSDLAPGQSGMDDMKLLEQRAEQLAAEAERDQPLRAQSKILFVRSDASREELAELAQQVNPEEIQLGEDEDEDEMDLEPNEVRLEQQSVPAAVFGSLKED
activation of the reporter gene responding to glucocorticoid [1]: inhibited | interaction with HDAC3 [2]: exhibits interaction | co-precipitation of endogenous HDART with Flag-Skip ([3]; 293 cells, anti-Flag antibody): co-precipitated | interaction of foreign HDART (GFP-HDART) with Flag-Skip ([3]; co-expression in 293 cells, immunoprecipitation with anti-Flag antibody): specifically interact
